Common to all, as to test: biochemical
Common to all, as to format: biochemical

Assay [1] deals with 266 human kinases (Homo sapiens, UniProt Q9UPE1). Conditions: MSSK1(h); 100 μM. A digest of the protocol:
(§1)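 Kinase phosphorylates cationic substrate with radiolabelled ATP phosphate; substrate retained on anionic filter membrane; scintillation count; % of 100% activity control.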

For assay [2], the target named is 266 human kinases (Homo sapiens, UniProt P51955). To be noted: NEK2(h); 100 μM. A digest of the protocol: as §1
Assay [3] addresses 266 human kinases (Homo sapiens, UniProt Q9HC98). To be noted: NEK6(h); 100 μM. The method, boiled down: as §1
Assay [4] deals with 266 human kinases (Homo sapiens, UniProt P48730). To be noted: CK1δ(h); 100 μM. A digest of the protocol:
as §1

For assay [5], the target named is 266 human kinases (Homo sapiens, UniProt P08922). Conditions: Ros(h); 100 μM. The method, boiled down:
as §1

Assay [6] has as its system 266 human kinases. Conditions: for % activity: 100 μM; for off-target kinase inhibition: at 100 μM. A digest of the protocol: as §1
The target of assay [7] is 266 human kinases (Homo sapiens, UniProt P08581, D1228H). Conditions: Met(D1246H)(h); 100 μM. A digest of the protocol: as §1
The target in assay [8] is 266 human kinases (Homo sapiens, UniProt P54756). To be noted: EphA5(h); 100 μM. A digest of the protocol:
as §1

For assay [9], the target named is T1, 266 human kinases (Homo sapiens, UniProt Q02156).
T1 sequence (Q02156 1-737): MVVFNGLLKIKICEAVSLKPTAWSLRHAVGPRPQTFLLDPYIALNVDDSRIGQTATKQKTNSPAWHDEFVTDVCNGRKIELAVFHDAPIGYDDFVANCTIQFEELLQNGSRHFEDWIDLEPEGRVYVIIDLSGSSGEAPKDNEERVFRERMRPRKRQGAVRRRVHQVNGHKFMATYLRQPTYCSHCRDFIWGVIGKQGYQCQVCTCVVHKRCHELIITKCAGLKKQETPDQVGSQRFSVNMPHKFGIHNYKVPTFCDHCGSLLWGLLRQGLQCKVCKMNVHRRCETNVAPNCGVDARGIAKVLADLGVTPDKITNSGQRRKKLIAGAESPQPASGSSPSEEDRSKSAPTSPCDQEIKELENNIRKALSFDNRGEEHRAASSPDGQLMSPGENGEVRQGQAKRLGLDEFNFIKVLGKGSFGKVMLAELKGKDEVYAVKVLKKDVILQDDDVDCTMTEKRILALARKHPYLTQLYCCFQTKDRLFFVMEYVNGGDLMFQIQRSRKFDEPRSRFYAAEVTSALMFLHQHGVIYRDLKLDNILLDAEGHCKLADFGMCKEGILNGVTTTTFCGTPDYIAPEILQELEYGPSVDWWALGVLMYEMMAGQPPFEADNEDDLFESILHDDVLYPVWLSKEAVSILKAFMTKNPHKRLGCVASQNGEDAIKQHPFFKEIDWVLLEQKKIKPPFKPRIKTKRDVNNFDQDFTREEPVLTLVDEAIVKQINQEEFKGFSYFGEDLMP
Conditions: PKCε(h); 100 μM. The method, boiled down:
as §1

In assay [10] the target is T2, 266 human kinases (Homo sapiens, UniProt Q9NWZ3).
T2 sequence (Q9NWZ3 1-460): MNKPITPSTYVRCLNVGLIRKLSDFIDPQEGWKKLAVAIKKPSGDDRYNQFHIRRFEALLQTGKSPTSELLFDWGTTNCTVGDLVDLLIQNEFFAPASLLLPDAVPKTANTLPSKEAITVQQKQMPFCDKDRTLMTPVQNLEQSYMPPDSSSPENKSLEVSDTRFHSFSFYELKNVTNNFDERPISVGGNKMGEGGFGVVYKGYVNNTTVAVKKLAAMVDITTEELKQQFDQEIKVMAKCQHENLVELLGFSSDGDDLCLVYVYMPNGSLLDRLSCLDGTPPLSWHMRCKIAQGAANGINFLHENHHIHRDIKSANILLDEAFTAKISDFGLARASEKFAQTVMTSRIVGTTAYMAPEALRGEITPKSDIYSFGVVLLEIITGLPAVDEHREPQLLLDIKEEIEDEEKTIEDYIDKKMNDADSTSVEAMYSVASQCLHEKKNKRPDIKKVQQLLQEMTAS
Conditions: IRAK4(h); 100 μM. A digest of the protocol: as §1

Assay [11] deals with T3, 266 human kinases (Homo sapiens, UniProt Q8N568).
T3 sequence (Q8N568 1-766): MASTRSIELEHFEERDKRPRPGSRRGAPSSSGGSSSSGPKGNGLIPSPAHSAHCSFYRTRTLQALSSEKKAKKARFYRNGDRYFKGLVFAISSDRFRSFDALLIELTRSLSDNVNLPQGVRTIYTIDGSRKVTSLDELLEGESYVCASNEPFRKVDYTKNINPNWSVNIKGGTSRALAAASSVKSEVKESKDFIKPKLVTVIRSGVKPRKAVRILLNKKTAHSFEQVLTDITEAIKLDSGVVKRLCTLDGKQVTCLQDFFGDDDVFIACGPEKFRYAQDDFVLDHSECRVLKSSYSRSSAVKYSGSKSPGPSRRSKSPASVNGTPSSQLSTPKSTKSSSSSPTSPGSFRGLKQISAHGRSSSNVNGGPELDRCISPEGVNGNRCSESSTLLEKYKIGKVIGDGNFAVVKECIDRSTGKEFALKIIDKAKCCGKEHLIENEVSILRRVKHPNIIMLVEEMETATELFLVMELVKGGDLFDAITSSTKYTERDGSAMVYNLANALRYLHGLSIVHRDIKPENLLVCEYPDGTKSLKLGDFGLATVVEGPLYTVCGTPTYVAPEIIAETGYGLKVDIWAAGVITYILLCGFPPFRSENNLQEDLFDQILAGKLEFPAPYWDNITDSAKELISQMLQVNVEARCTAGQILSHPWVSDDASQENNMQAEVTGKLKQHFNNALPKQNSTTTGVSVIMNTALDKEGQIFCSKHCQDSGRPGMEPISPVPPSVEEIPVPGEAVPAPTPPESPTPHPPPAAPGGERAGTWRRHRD
Conditions: DCAMKL2(h); 100 μM. A digest of the protocol:
as §1

Chain of 266 human kinases (Homo sapiens, UniProt P51955) (P51955 whole entry): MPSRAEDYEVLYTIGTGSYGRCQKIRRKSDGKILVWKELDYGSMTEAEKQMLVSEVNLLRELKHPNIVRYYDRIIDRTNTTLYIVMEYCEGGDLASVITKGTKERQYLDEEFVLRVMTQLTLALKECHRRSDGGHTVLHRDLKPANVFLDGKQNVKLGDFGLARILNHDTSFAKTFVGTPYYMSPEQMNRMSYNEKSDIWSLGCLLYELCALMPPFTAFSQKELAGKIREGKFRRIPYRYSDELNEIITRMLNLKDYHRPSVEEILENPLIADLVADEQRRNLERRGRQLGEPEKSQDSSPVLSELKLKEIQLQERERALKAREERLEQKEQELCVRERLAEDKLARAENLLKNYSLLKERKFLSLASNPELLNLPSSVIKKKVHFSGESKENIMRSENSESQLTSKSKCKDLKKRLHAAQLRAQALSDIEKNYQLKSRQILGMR
Chain of 266 human kinases (Homo sapiens, UniProt Q9UPE1) (Q9UPE1 whole entry): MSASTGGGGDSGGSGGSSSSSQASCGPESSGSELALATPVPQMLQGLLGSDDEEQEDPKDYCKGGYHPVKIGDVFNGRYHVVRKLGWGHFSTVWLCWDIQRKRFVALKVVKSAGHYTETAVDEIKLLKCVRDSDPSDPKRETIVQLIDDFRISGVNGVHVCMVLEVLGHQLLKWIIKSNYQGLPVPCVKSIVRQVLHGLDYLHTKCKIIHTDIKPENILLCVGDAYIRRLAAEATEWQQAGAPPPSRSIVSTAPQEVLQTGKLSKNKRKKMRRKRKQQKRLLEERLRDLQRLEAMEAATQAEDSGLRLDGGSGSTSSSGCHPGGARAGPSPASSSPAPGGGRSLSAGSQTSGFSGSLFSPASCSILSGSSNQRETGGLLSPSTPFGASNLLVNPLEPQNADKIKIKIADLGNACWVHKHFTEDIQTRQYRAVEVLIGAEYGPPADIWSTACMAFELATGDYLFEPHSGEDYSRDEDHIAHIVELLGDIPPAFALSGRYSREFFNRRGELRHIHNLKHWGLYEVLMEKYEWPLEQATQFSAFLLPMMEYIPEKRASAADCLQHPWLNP
Chain of 266 human kinases (Homo sapiens, UniProt P48730) (P48730 whole entry): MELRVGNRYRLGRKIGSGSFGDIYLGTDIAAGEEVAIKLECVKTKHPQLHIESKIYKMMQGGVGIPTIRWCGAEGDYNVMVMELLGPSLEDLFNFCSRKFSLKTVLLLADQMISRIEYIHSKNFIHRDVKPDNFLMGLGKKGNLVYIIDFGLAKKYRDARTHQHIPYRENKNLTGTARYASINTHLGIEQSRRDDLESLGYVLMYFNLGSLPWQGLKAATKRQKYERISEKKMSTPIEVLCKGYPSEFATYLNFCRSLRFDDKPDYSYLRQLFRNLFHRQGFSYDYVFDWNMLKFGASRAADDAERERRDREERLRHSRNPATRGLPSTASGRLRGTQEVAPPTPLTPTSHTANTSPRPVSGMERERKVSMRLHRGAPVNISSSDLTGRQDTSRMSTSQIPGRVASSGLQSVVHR
Chain of 266 human kinases (Homo sapiens, UniProt P54756) (P54756 25-1037): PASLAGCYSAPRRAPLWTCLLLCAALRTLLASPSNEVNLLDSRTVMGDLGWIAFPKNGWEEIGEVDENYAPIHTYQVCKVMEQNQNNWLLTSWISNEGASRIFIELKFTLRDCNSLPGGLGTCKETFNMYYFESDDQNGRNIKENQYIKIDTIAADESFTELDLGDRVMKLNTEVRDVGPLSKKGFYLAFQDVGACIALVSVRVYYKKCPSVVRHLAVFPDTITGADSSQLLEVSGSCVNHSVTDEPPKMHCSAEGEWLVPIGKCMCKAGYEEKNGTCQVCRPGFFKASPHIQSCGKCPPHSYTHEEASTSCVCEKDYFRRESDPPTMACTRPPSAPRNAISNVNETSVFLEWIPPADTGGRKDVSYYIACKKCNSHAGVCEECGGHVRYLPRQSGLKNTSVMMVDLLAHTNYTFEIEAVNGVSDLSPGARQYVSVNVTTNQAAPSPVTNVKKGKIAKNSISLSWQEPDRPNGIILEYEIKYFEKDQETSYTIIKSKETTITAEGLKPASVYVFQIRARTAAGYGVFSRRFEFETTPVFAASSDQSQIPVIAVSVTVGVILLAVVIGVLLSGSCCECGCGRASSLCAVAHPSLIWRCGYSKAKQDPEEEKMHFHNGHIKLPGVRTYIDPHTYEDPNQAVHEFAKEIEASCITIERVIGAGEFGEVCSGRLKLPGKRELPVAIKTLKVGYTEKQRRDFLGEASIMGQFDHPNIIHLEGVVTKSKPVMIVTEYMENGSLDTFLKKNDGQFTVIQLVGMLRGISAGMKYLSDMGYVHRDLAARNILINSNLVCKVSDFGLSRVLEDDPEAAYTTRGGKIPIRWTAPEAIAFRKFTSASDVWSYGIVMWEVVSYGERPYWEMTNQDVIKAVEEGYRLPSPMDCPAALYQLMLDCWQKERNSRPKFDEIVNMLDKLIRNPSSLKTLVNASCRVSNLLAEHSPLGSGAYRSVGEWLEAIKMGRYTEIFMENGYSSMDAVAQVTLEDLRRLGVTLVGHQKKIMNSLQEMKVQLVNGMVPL
Chain of 266 human kinases (Homo sapiens, UniProt P08922) (P08922 28-2347): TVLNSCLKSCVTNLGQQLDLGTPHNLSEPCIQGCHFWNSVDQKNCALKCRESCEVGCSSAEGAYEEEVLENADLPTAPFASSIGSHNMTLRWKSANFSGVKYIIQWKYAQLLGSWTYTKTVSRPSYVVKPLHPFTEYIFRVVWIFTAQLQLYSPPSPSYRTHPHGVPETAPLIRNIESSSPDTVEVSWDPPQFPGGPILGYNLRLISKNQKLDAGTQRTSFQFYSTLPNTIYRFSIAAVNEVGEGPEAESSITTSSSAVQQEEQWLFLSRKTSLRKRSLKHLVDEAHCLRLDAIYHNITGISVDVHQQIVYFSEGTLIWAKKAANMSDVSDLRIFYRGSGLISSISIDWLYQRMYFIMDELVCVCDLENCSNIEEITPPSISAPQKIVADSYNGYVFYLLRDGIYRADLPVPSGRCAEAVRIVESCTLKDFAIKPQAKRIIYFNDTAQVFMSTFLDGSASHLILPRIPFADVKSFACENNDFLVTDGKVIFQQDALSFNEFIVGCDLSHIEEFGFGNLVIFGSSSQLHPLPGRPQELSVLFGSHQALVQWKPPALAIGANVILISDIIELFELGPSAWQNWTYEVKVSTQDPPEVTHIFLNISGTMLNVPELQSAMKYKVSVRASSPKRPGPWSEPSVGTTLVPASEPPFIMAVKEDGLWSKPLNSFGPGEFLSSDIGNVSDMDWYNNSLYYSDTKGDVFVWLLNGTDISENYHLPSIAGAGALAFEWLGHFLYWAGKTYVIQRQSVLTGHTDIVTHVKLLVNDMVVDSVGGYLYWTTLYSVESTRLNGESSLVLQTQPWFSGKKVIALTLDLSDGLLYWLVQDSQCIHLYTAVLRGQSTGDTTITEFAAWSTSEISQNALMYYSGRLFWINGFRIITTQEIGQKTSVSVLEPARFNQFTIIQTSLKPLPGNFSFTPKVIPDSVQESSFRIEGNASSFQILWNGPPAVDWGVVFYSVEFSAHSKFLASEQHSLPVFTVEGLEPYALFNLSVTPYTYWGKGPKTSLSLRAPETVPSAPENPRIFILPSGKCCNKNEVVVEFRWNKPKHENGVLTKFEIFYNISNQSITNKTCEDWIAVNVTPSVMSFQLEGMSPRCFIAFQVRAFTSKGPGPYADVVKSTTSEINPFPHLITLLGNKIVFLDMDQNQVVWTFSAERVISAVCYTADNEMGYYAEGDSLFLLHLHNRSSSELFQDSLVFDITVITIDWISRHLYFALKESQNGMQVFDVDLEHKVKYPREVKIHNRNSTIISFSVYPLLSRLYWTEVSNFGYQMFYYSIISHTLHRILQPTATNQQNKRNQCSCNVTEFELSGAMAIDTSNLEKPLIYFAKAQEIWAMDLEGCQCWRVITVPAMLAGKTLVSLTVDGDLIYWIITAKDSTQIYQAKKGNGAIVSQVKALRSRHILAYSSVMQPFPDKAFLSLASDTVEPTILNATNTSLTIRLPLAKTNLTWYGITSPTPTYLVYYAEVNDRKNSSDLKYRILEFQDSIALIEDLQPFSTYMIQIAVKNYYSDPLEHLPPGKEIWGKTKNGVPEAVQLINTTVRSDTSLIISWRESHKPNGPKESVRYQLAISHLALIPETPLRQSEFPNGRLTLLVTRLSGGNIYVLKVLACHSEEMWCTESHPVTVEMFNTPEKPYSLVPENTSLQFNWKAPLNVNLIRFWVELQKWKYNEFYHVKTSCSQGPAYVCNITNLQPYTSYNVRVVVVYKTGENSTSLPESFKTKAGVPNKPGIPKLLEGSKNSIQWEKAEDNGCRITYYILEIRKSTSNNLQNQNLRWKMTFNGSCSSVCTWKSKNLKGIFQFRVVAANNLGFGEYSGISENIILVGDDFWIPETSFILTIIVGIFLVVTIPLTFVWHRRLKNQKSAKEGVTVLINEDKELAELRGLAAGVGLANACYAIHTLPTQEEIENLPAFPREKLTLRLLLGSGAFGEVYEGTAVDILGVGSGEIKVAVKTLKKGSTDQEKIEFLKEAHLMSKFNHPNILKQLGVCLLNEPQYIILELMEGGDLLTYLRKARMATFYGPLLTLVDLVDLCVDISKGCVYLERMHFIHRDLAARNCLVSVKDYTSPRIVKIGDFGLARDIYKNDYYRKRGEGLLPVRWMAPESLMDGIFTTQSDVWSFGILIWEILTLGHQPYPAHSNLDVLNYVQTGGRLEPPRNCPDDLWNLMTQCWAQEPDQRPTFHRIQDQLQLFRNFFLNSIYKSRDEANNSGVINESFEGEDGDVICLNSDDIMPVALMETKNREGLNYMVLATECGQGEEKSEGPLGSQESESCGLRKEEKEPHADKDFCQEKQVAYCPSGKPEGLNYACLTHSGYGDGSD
Chain of 266 human kinases (Homo sapiens, UniProt Q9HC98) (Q9HC98 whole entry): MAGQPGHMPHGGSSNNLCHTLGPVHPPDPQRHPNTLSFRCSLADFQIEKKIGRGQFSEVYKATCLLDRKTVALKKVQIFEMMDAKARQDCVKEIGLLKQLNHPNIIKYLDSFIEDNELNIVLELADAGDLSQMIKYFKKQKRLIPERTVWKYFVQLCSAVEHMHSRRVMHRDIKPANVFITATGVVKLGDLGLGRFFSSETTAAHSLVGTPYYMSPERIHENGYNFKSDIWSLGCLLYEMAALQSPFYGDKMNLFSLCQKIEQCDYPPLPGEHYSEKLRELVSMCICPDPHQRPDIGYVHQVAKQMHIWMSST

In the case of “HRRIKAWLKKIKALARQLGVAA (mammal) [MMI-0500]”, the “% activity” value in the assay with 266 human kinases [1] turned out to be 22%; with 266 human kinases [2] it was 0%; with 266 human kinases [3], 49%; with 266 human kinases [4], 78%; with 266 human kinases [5] it was 150%; in the assay with 266 human kinases [6] (PKCβII(h)) it was 3%. In addition, the “% activity” value is listed as 24% in the assay with 266 human kinases [6] (PKG1β(h)); 150% with 266 human kinases [7]; 42% with 266 human kinases [8]; 23% in the assay with 266 human kinases [9]; 3% with 266 human kinases [10]; 56% with 266 human kinases [11]. The off-target kinase inhibition entry with 266 human kinases [6] is on record as “very limited off-target kinase inhibition”.

With “YARAAARQARAKALNRQLGVA (mammal) [MMI-0200]”, the “% activity” value with 266 human kinases [1] amounted to 100%; with 266 human kinases [2] it was 97%; with 266 human kinases [3] it was 98%; with 266 human kinases [4] it was 92%; in the assay with 266 human kinases [5], 86%; with 266 human kinases [6] (MAPK1(h)), 97%. Besides, the “% activity” value was determined as 100% in the assay with 266 human kinases [6] (PKCβII(h)); 57% in the assay with 266 human kinases [6] (PKG1β(h)); 139% in the assay with 266 human kinases [7]; 123% with 266 human kinases [8]; 98% with 266 human kinases [9]; 110% in the assay with 266 human kinases [10]. The “% activity” value with 266 human kinases [11] amounted to 131%. In the assay on 266 human kinases [6], the off-target kinase inhibition result is “very limited off-target kinase inhibition”.

For the origin of these results see US20140072613A1, “Compositions and Methods for Treating Cutaneous Scarring” (priority 2012, published 2014).
